Here are results for 1 substance from PMC4370877.

In the test the target is recombinant Small basic protein (rSbp) (S. epidermidis). As to the kind of experiment: ELISA; competition; rSbp (150 μg/ml in PBS) pre-incubated with soluble rDomain-B (0.4-100 μg/ml) for 1 h at 4°C, then loaded into rDomain-B-coated wells; inhibition = (1 - A405 with rDomain-B / A405 without) x 100. A general note: ELISA stands for enzyme-linked immunosorbent assay.

Consider “recombinantly expressed Aap domain-B (rDomain-B) (domain or fragment)”, for which the percent inhibition of rSbp binding to immobilized rDomain-B came out at 80%.
